Source: patent US20210253725A1 (BIONTECH, published 2021)

T1: CD134 expressed on the cell surface of HT1080_OX40 cells (human, UniProt P43489 29-277)
T1 sequence (looked up): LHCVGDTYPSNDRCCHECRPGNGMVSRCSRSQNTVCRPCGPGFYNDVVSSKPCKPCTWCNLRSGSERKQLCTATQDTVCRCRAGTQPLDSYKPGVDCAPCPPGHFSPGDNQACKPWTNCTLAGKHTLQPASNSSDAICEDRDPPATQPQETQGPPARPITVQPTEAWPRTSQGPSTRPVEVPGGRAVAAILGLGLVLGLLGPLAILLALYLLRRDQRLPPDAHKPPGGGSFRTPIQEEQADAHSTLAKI

T2: CD134 protein (His-tagged, Sino Biological Inc. 10481-H08H) (human, UniProt P43489 29-216)
T2 construct: bought protein coated on ELISA plates; also called OX40; TNFRSF4; not shown: His tag
T2 sequence (looked up): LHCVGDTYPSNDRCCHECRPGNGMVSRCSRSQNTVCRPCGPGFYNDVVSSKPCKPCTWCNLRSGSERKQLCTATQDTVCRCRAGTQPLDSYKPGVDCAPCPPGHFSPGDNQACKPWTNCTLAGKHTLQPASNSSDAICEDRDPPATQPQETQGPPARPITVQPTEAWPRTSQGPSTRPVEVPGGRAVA


Legend:
[1] = biological target: T1, CD134 expressed on the cell surface of …; assay: cell-based or functional assay
[2] = biological target: T1, CD134 expressed on the cell surface of …; assay: HT1080_OX40 cells, imaging
[3] = biological target: T2, CD134 protein (His-tagged, Sino …); assay: ELISA, coated His-tagged CD134
Note: test concentration or dose not given here.

| Binder | Functional assay Cross-linked by F(ab′)2 fragment IL-8 [1] [abs. corr.] | Functional assay IL-8 [1] [abs. corr.] | Cellular binding assay [RFU] [2] [RFU] | ELISA [abs. corr.] [3] [abs. corr.] |
| --- | --- | --- | --- | --- |
| P018.S.12.A.E03 (antibody, V domains shown, V regions on human Ig constant parts; also called AB134_74) VH: QSVEESGGRLVTPGTPLTLTCTVAGIDLNICGMSWVRQAPGKGLEWIGIIYPSDYTYYATWAKGRFTISKTSTTVDLKITSPTTEDTATYFCARGLGHAWSHFDLWGQGTLVTVSS VL: AFELTQTPASVSEPVGGTVTIKCQASQSIGSDLAWYQQKPGQPPKLLIYSVSNLPSGVSSRFKGSRSGTEYTLTISDLESADAATYYCQSYYGTITTGYIAFGGGTEVVVK | 2 | 0.461 | 482 | 2.04 |
| P018.S.12.A.G01 (antibody, V domains shown, V regions on human Ig constant parts; also called AB134_83) VH: QSVEESGGRLVTPGTPLTLTCTVSGFSLSSSTMGWFRQAPGKGLEWIGVIYTDGDTYYARWAKGRFTISKTSTTINLSITSPTSEDTATYFCARRANGYDDFDPWGPGTLVTVSS VL: AYDMTQTPASVEVAVGGTVTIKCQASESISSYLNWYQQKPGQPPKLLIYYESYLASGVPSRFKGSGSGTEYTLTISGVESADAATYYCQQGFSYINVDNTFGGGTEVVVK | 1.86 | 1.33 | 526 | 1.56 |
| P018.S.11.A.F03 (antibody, V domains shown, V regions on human Ig constant parts; also called AB134_39) VH: QEQLVESGGGLVQPEGSLTLTCKASGFDFNNNAMCWVRQAPGKGLEWIACIYDGSSGSTYYASWAKGRFTISKTSSSTVTLQMTSLTAADTATYFCARAYAAYTVYDYAFNLWGPGTLVTVSS VL: DVVMTQTPASVSEPVGGTVTIKCQASQSIGSDLAWYQQKPGQPPKLLIYYTTNLETGVSSRFKGSGSGTQFTLTISDLESADAATYYCQYADRSSYSFGGGTEVVVK | 1.94 | 0.38 | 522 | 1.85 |
| P018.S.11.A.A04 (antibody, V domains shown, V regions on human Ig constant parts; also called AB134_21) VH: QSVEESGGRLVTPGTPLTLTCTVSGFSLSSYAMGWVRQAPGKGLEYIGVISTSANTYYATWAKGRFTISKTSTTVDLRITSPTTEDTATYFCARVVGLYDSYGDVDATYDAFDPWGPGTLVTVSS VL: AQVLTQTASPVSAAVGDTVTINCQSSQSVYNNNLLSWYQQKPGQPPKLLVYDASNLASGVPHRFSGSGSGTQFTLTISGVQSDDAATYYCLGGYDDDADIYAFGGGTEVVVK | 1.99 | 0.533 | 582 | 2.1 |
| P018.S.11.A.E04 (antibody, V domains shown, V regions on human Ig constant parts; also called AB134_35) VH: QSVEESGGRLVTPGTPLTLTCTVSGFSLNDYAMSWVRQAPGKGLEWIGSIYTSGTPYYATWAKGRFTISKTSTTVDLKITSPTTEDTATYFCARQSGIDNYWLFTLWGQGTLVCVSS VL: AYDMTQTPASVEVGVGGTVTIKCQASESIASGLAWYQQKPGQRPKLLIYSASSLASGVSSRFKGSGSGTQFTLTISDLESADAANYYCQQGYTSTNLHNVFGGGTEVVVK | 1.83 | -0.194 | 416 | 1.31 |
| P018.S.08.A.B03 (antibody, V domains shown, V regions on human Ig constant parts; also called AB134_19) VH: QSVEESGGRLVTPGTPLTLTCTVSGFSLSRYAITWVRQAPGKGLEWIGIISSSGTTYYASWAKGRFTISKTSTTVDLKITSPTTEDTAIYFCARAIAGDAGYVYAIDWLDLWGQGTLVTVSS VL: DPVLTQTPSSASEPVGGTVTIKCQASEYISNYLSWYQQKPGQPPKLLIFGASTLESGVPSRFSGSGSGTEFTLTISGVQSADAATYYCQGGYFSSSTTYVAFGGGTEVVVR | 1.94 | 0.709 | 477 | 2.66 |
| P018.S.12.A.B02 (antibody, V domains shown, V regions on human Ig constant parts; also called AB134_57) VH: QSLEESGGRLVTPGTPLTLTCTVSGIDLSKYTMTWVRQAPGKGLEWIGLISFGGRGGTWYANWAKGRFTISKTSTTVDLRIASPTTEDTATYFCARARYSGTNYDYFNLWGQGTLVTVSS VL: AYDMTQTPASVEVAVGGTVTIKCQASQSISNWLAWYQQKPGQRPKLLIYGASNLESGVPSRFKGSGSGTDFTLTISDLESADAATYYCQQGYSSDGVTNAFGGGTEVVVE | 1.97 | -0.167 | 560 | 2.21 |

Other lines, results leading:

| Functional assay Cross-linked by F(ab′)2 fragment IL-8 [1] [abs. corr.] | Functional assay IL-8 [1] [abs. corr.] | Cellular binding assay [RFU] [2] [RFU] | ELISA [abs. corr.] [3] [abs. corr.] | Binder |
| --- | --- | --- | --- | --- |
| 1.87 | 0.054 | 493 | 2.3 | P018.S.12.A.E06 (antibody, V domains shown, V regions on human Ig constant parts; also called AB134_77) VH: QSVEESGGRLVTPGTPLTLTCTVSGFSLSNYHMCWVRRAPGKGLEWIGSITTADETTHYANWAKGRFTISETSTTVDLRITSPTTEDTAIYFCGRTIRYDDYAVDLWGPGTLVTVSS VL: DLVMTQTPASMSEPVGGTVTIKCQASESVGGYLAWYQQKAGQRPKLLIYAAGNLASGVPSRFKGSGSGTEYTLTISDLESADAATYYCQCTYFDSSYVGFGGGTEVVVR |
| 1.99 | 0.185 | 549 | 2.07 | P018.S.12.A.F02 (antibody, V domains shown, V regions on human Ig constant parts; also called AB134_78) VH: QSLEESGGRLVTPGTPLTLTCTASGFSLIKSHINWVRQAPGKGLEWVGGIAYDDNTYYANWAKGRFTISKTSTTVDLRITSPTTADTATYFCAREDSSGWGSFNLWGQGTLVTVSS VL: AQVLTQTPSSVSAAVGGTVTISCQSSQSVYATNQLSWFQQKSGQPPKRLIYSASTLASGVSSRFKGSGSGTQFTLTISGVQSDDAATYYCQGAYDCSGGDCRAFGGGTEVVVK |
| 1.89 | -0.121 | 295 | 1.98 | P018.S.12.A.H04 (antibody, V domains shown, V regions on human Ig constant parts; also called AB134_90) VH: QSVEESGGRLVTPGTPLTLTCTASGFSLSDYYMSWVRQAPGKGLEWIGFMNSGGNAYYASWASGRFTISKTSTTVDLKITSPTTEDTATYFCVRDLSRFSLWGRGTLVIVSS VL: AAVLTQTPSPVSAAVGGTVTINCQASPSVYSDYLSWFQQKPGQAPKLLIYWASTLTSGVPSRFSGSGSGTQFTLTISDVQSDDAATYYCAGGYSGNSDVWAFGGGTEVVVK |
| 2 | 0.538 | 458 | 2.5 | P018.S.04.A.C06 (antibody, V domains shown, V regions on human Ig constant parts; also called AB134_8) VH: QSVEESGGRLVTPGTPQTLTCTVSGFSLSSYAMSWVRQAPGKGLEWIGIISSSGSTYYASWAKGRFTISKTSTTVDLKITSPTTEDTATYFCARDAYPSYSPFGYYFTLWGQGTLVTVSS VL: AIKMTQTPASVSAAVGGTVSINCQASEDIYNYLAWYQQKPGQPPKLLIYDASDLASGVPSRFKGSGSGKQFTLTISGVQSDDAATYYCQHGYFTYSGENAFGGGTEVVVK |
| 1.95 | 0.567 | 498 | 2.52 | P018.S.11.A.H06 (antibody, V domains shown, V regions on human Ig constant parts; also called AB134_49) VH: QSLEESGGRLVTPGTPLTLTCTVSGFSLSTYAMIWVRQAPGEGPEWIGLIAGGGNTWYASWAKGRFTISKTSTTVDLKITSPTTEDTATYFCARADYLGYGNNFWGQGTLVTVSS VL: AAVLTQTPSPVSAAVGGTVTINCQASQSVYNNNYLAWYQQKPGQPPKLLIYWASNLASGVPSRFSGSGSGTQFSLTISGVQSDDAATYYCLGVYDDDADNGFGGGTEVVVK |
| 1.97 | 0.019 | 130 | 0.744 | P018.S.11.A.D06 (antibody, V domains shown, V regions on human Ig constant parts; also called AB134_32) VH: QSLEESGGRLVKPGESLTLTCTVSEFSLSSNAMGWVRQAPGKGLEFIGLIDSGGDAYYATWAKGRFTISKTSSTTVDLKATSLTTEDTATYFCGRGYWFPRLGLWGQGTLVTVSS VL: AAVLTQTPSPVSAAVGGTVSINCQSTKNVYLNNWLGWFQKKPGQPPKLLIYDASTLASGVPSRFKGSGSGTEFTLTISDLESDDAATYYCAGAYDDNSDHTFGGGTEVVVK |
| 1.95 | 0.289 | 551 | 2.11 | P018.S.12.A.F04 (antibody, V domains shown, V regions on human Ig constant parts; also called AB134_80) VH: QQQLEESGGGLVKPGGTLTLTCTASGIDFSSYWMWWVRQPPGKGLEWVACIYNGDGSTYYASWAKGRFTISKTSSTTVTLQMTSLTAADTATYFCARDFHLWGPGTLVTVSS VL: AQVLTQTASPVSAAVGSTVTINCQASQNIYKNNYLSWYQQKPGQPPKGLIYSASTLDSGVPLRFSGSGSGTKFTLTISDVQSDDAATYYCLGSVACSGPDCIVFGGGTEVVVK |
| 1.86 | 0.139 | 488 | 2.23 | P018.S.12.A.D04 (antibody, V domains shown, V regions on human Ig constant parts; also called AB134_69) VH: QSVEESGGRLVTPGTPLTLTCTVSGIDLSSYAMGWVRQAPGKGLEYIGIISYDGSTYYASWAKGRFTISKTSTTVDLKITSPTTEDTATYFCARVDYGDYNFALWGQGTLVTVSS VL: DVVMTQTPASVSEVVGGTVTIKCQASESISNYLAWYQQKPGQPPKLLIYAASNLASGVPSRFSGSGSGTQFTLTISDLESADAATYYCQCTYYVSSYFAFSGGTEVVVK |
| 1.95 | 0.393 | 493 | 1.44 | P018.S.12.A.A03 (antibody, V domains shown, V regions on human Ig constant parts; also called AB134_52) VH: LEQSAGGAEGGLVKPGGSLELCCKASGFSLNNNYWICWVRQAPGKGLEWIGCIYVGVVSLTYSASWVNGRFTLSKDIDQSTGCLQLNSLTAADTAMYYCARSLYSGYAGYGDGYYGMDLWGPGTLVTVSS VL: GVVMTQTPASVSDPVGGTVTIKCQASQSIGSDLAWYQQKPGQPPKLLIYAASNLASGVSSRFSGIRSGTEFTLTISDLESADAATYYCQCTDYVDSHDTFGGGTEVVVK |
